Reference: patent US20110266675A1

Target: microtubules assembled from fluorescein-modified bovine brain tubulin (α/β-tubulin) (bovine)
Assay: cell-based or functional assay

average length of MTs after 5 min of polymerization, on γ-tubulin-functionalized gold pads against solution without functionalized microchips: 1.68 micron | average length of MTs after 10 min of polymerization, on γ-tubulin-functionalized gold pads against solution without functionalized microchips: 3.47 micron
Substance: Glutathione S-Transferase (GST)-tagged γ-Tubulin fusion protein (from UniProt P23258 1-451)
